B1: BBSome complex member BBS5 (Homo sapiens), Q8N3I7 (parent)
chain: MSVLDALWEDRDVRFDLSAQQMKTRPGEVLIDCLDSIEDTKGNNGDRGRLLVTNLRILWHSLALSRVNVSVGYNCILNITTRTANSKLRGQTEALYILTKCNSTRFEFIFTNLVPGSPRLFTSVMAVHRAYETSKMYRDFKLRSALIQNKQLRLLPQEHVYDKINGVWNLSSDQGNLGTFFITNVRIVWHANMNDSFNVSIPYLQIRSIKIRDSKFGLALVIESSQQSGGYVLGFKIDPVEKLQESVKEINSLHKVYSASPIFGVDYEMEEKPQPLEALTVEQIQDDVEIDSDGHTDAFVAYFADGNKQQDREPVFSEELGLAIEKLKDGFTLQGLWEVMS
partner: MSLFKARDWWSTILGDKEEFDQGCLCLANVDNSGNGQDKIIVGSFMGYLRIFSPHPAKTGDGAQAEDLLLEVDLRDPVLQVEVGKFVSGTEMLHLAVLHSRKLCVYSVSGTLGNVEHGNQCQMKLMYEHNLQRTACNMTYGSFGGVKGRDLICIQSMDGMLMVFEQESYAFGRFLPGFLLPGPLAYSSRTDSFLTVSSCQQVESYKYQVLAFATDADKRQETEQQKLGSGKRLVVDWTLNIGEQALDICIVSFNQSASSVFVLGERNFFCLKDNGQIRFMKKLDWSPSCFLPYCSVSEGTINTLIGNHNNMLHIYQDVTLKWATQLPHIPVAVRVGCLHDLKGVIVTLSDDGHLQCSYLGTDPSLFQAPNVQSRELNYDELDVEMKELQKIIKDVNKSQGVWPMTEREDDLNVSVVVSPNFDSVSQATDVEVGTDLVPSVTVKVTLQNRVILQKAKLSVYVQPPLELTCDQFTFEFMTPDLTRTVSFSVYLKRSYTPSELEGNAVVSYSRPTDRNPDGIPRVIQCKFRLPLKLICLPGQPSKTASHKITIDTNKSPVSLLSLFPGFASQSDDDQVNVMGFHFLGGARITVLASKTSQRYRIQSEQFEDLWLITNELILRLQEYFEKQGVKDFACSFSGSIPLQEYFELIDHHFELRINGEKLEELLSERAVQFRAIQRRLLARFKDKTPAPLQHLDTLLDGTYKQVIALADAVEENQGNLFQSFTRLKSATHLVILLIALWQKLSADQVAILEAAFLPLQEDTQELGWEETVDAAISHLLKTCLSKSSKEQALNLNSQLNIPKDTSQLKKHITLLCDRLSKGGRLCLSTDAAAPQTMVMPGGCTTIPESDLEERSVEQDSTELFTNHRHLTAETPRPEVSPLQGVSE

Variants of: B1
Conditions: with pthb1_human BBS9, Q3SYG4

Row | Variant | effect of a mutation on the interaction
1 | E245K | with no effect
2 | E245A | with no effect
3 | G234E | with no effect
4 | G234K | with no effect
5 | G234A | disrupting interaction strength
6 | I222E | disrupting interaction strength
7 | I222K | with no effect
8 | I222A | with no effect
9 | K242E | with no effect
10 | K242A | with no effect
11 | G229K | with no effect
12 | G229E | with no effect
13 | G229A | with no effect
14 | G229S | disrupting interaction strength
15 | V221A | with no effect
16 | V221K | with no effect
17 | V221E | with no effect
18 | L218A | with no effect
19 | L218K | with no effect
20 | L218E | with no effect
21 | E241A | with no effect
22 | E241K | with no effect
23 | L243A | with no effect

Row | Variant | effect of a mutation on the interaction
24 | L243E | with no effect
25 | L243K | with no effect
26 | A219E | with no effect
27 | A219K | with no effect
28 | Q227K | with no effect
29 | Q227E | with no effect
30 | Q227A | disrupting interaction strength
31 | S246E | with no effect
32 | S246A | with no effect
33 | S246K | with no effect
34 | Y231K | with no effect
35 | Y231A | disrupting interaction strength
36 | Y231E | with no effect
37 | L233A | disrupting interaction strength
38 | L233E | with no effect
39 | L233K | with no effect
40 | Q244K | with no effect
41 | Q244A | with no effect
42 | Q244E | with no effect
43 | G230A | with no effect
44 | G230E | with no effect
45 | G230K | with no effect
46 | S225K | with no effect

Row | Variant | effect of a mutation on the interaction
47 | S225E | with no effect
48 | S225A | with no effect
49 | Q226K | with no effect
50 | Q226A | with no effect
51 | Q226E | with no effect
52 | E223K | with no effect
53 | E223A | with no effect
54 | S224K | with no effect
55 | S224A | with no effect
56 | S224E | with no effect
57 | F235E | with no effect
58 | F235K | disrupting interaction strength
59 | F235A | with no effect
60 | G217E | with no effect
61 | G217K | with no effect
62 | G217D | disrupting interaction strength
63 | V232E | with no effect
64 | V232A | with no effect
65 | V232K | with no effect
66 | K236A | with no effect
67 | K236E | disrupting interaction strength
68 | V247E | with no effect
69 | V247A | with no effect

Row | Variant | effect of a mutation on the interaction
70 | V247I | disrupting interaction strength
71 | P239E | with no effect
72 | P239A | with no effect
73 | P239K | with no effect
74 | V240A | with no effect
75 | V240K | with no effect
76 | V240E | with no effect
77 | I237K | with no effect
78 | I237E | with no effect
79 | I237A | with no effect
80 | S228E | with no effect
81 | S228K | with no effect
82 | S228A | with no effect
83 | L220E | with no effect
84 | L220K | with no effect
85 | L220A | with no effect
86 | D238E | with no effect
87 | D238A | with no effect
88 | D238K | with no effect
89 | D238N | disrupting interaction strength

Reference: IntAct's records for PubMed 29039417
